Results on two molecules are retold here after patent publication US8822407B2, “Preparation of conjugates comprising adenine derivatives and allergenic proteins and their use for specific immunotherapy of allengenic diseases” (Universita' Degli Studi di Firenze, priority 2010, dated 2014).

The subject of test [1] is allergen-specific T cell lines. Briefly: Functional phenotype of allergen-specific T cell lines. The following applies: SA-26E 0.085 μg/ml, alone or mixed with nDer p2 10 μg/ml. The class given is cell-based, human. The protocol:
Mononuclear cells from 10 atopic donors with sensitization towards Dermatophagoides pteronyssinus have been isolated by density gradient and 1×10^6 cells cultured in 2 ml complete medium plus 5% autologous serum in the presence of DP or nDer p2 allergens or their respective conjugates (DP-conj or nDer p2-conj) (all at 10 μg/ml) in 24 flat-bottomed plates (Costar). […] After 6 d incubation and addition of rIL-2 (Proleukin) (25 UI/ml), T cell blasts are further expanded by the addition of medium, fresh 5% autologous serum and 25 UI/ml rIL-2 every three days. After 15 d culture, T cell blasts from single cultures are collected, washed with sterile PBS, counted and used to assess allergen specificity, phenotype and function.
To assess allergen-specificity, 1×10^5 T cell blasts are cultured in 96 U-bottomed plates in 0.2 ml final volume in medium plus 5% autologous serum, 1×10^5 autologous irradiated (9000 R) mononuclear cells as APCs, DP or nDer p2 (10 μg/ml) and, after 3 d incubation, tritiated thymidine (3HTdR) (Amersham) is added. After further 16 hr incubation, single cultures are transferred on paper filters through the use of an Harvester apparatus (Tomtec) and radioactivity measured in a β-counter. […]

Test [2] concerns allergen-specific T cell lines. Briefly: Functional phenotype of allergen-specific cells with different ratios between allergen and modified adenine. The following applies: T cell lines from atopic donors, Example 5 step d. It is filed as cell-based, human.

For the molecule `Nc1nc(SCCCC(=O)ON2C(=O)CCC2=O)nc2c1nc(O)n2Cc1ccccc1` [SA-26E, 4-(6-Amino-9-benzyl-8-hydroxy-9H-purin-2-ylsulfanyl)-butyric acid 2,5-dioxo-pyrrolidin-1-yl ester], the “modification of the cellular phenotype of allergen-specific T cells (TH2 towards TH1/TH0)” value in test [1] was “inactive”.

B1: nDer p2: purified natural allergen Der p2, major allergen from the house dust mite Dermatophagoides pteronyssinus (protein, UniProt P49278 18-146, looked up)
Mite group 2 allergen Der p 2: DQVDVKDCANHEIKKVLVPGCHGSEPCIIHRGKPFQLEAVFEANQNTKTAKIEIKASIDGLEVDVPGIDPNACHYMKCPLVKGQQYDIKYTWNVPKIAPKSENVVVTVKVMGDDGVLACAIATHAKIRD
modifications: natural purified
notes: purified natural allergen Der p2, major allergen from the house dust mite Dermatophagoides pteronyssinus
Turning to B1, in test [2], the “% of cells expressing IFN-gamma+” value turned out to be 5% and the “% of cells expressing IL-4+” value worked out at 55.5%.
